One data set addresses T1, YhbO (Escherichia coli, UniProt P45470).
T1 construct: full-length ORF with N-terminal His6 tag (pET-19m), E. coli Rosetta (DE3); tagged mass 20,858 Da
T1 sequence (P45470 1-172): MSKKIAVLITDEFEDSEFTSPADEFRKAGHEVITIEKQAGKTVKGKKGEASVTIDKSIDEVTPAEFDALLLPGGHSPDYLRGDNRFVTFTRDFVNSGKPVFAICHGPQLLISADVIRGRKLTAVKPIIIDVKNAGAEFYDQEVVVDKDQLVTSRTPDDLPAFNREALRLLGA
Kind of data set: 1D 1H NMR of end products. It is filed as biochemical. The note with it: 1 mM MGO, 20 μg enzyme, 50 mM PBS with 5% DMSO-d6, overnight, 4 °C.

The target in data set [1] is Pseudomonas aeruginosa PfpI (PA0355), recombinant, N-terminal His6 tag (P. aeruginosa PAO1). As to the kind of experiment: AUC; sedimentation velocity; 25 mM Tris-HCl (pH 8.0), 100 mM NaCl; 0.5, 1.0 and 2.0 mg/ml PfpI; 20 C, 24 h.
Substrate in data set [2]: CC(=O)C=O
Kind of data set: colorimetric lactate assay after heat quench, Michaelis-Menten fit. Conditions: PBS, 37 °C, 0.2 μM enzyme, glutathione-independent. It counts as biochemical, Pseudomonas aeruginosa.

As for `CC(=O)C=O` [methylglyoxal], the “1D 1H NMR of end products” value at YhbO is recorded as “both enzymes quantitatively convert MGO to lactate”.

For “Pseudomonas aeruginosa PfpI (PA0355), recombinant, N-terminal His6 tag (enzyme)”, in data set [1], the stoichiometry N was 2.

B1: PfpI (Pseudomonas aeruginosa PAO1) (protein)
chain: MTQSLHGKVVAALVTDGFEQVELTGPKKALEDAGATVRILSDKAGEVRGWNHHQPAEAFRVDGTFEDASLDDYDALLLPGGVINSDQIRSLAKAQELAIRAEQASKPVAVICHGAWLLISAGLVQGRTLTSWPSLKDDINNAGGHWVDQEVAVDGKLVSSRKPEDIPAFNRRFIEILAG
notes: full-length ORF (540 bp) with N-terminal His6 tag (pET-19m), E. coli Rosetta (DE3); tagged mass 21,246 Da
As for B1, in data set [2], the Michaelis constant (Km) was 369 ± 139 µM and the catalytic constant (kcat) was 1.72 ± 0.367 s⁻¹.

For orientation: stoichiometry N means a count of units in the complex or per binding partner. Broadly, the Km is the substrate concentration at which the rate is half of its maximum. Broadly, the kcat is the maximal rate divided by the concentration of active sites.

The record behind these values is PMC11987610, “Pseudomonas aeruginosa PfpI is a methylglyoxalase” (The Journal of Biological Chemistry, 2025).
